Laboratory results published in PMC4705532, ““Click on the bidirectional switch”: the aptasensor for simultaneous detection of lysozyme and ATP with high sensitivity and high selectivity”.

T1: papain (UniProt P00784 134-345)
T1 sequence: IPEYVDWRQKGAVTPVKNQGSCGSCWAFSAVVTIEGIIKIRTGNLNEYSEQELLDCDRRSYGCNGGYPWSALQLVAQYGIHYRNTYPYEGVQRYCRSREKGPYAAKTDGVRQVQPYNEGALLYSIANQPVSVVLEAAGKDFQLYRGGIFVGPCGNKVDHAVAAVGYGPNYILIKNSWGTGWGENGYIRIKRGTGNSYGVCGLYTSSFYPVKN


Legend:
[1] = molecular target: T2, lysozyme (UniProt P00698 19-147); experiment: resonance light scattering; 10 mM Tris pH 7.4, 2.0 uM methyl violet (duplex sensor), target binding 20 min at 37 °C; salt not stated; settings: protein: commercial
T2 sequence (P00698 19-147): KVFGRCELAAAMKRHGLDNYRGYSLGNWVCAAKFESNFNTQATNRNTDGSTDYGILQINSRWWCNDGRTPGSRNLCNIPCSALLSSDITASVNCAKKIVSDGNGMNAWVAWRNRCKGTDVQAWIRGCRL

[2] = molecular target: thrombin (UniProt P00734;P00734 328-363;364-622); experiment: resonance light scattering; 2.0 uM methyl violet; 100-fold excess; 10 mM Tris pH 7.4, 2.0 uM methyl violet (duplex sensor), target binding 20 min at 37 °C; salt not stated
[3] = molecular target: ovalbumin (UniProt P01012 2-386); experiment: as above; settings: protein: commercial; blunt
ovalbumin, sequence (P01012 2-386): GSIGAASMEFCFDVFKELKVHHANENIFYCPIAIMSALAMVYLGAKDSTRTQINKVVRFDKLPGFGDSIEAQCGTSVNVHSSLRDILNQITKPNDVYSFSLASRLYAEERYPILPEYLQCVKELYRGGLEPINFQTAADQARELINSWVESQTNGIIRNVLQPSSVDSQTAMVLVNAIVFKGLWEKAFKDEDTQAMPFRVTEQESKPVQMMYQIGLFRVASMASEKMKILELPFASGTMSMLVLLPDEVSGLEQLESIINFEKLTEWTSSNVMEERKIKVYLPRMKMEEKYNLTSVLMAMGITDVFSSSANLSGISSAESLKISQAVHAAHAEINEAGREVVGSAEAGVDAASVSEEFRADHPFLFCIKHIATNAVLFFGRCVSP

[4] = molecular target: T1, papain; experiment: as above; settings: protein: commercial; blunt
[5] = molecular target: T2, lysozyme; experiment: resonance light scattering; 2.0 uM methyl violet; lysozyme said to open the duplex and bind Lapt; 10 mM Tris pH 7.4, 2.0 uM methyl violet (duplex sensor), target binding 20 min at 37 °C; salt not stated; settings: protein: commercial; blunt

Binder	binding result [1]	binding result [2]	binding result [3]	binding result [4]	binding result [5]
Lapt (lysozyme aptamer) (ssDNA) DNA: ATCTACGAATTCATCAGGGCTAAAGAGTGCAGAGTTACTTAGACCTTCCTCCGCAATACTCCCCCAGGTT	binds				
Lapt≈Aapt duplex (with methyl violet) (dsDNA) DNA 1: ATCTACGAATTCATCAGGGCTAAAGAGTGCAGAGTTACTTAGACCTTCCTCCGCAATACTCCCCCAGGTT DNA 2: AACCTGGGGGAGTATTGCGGAGGAAGGTCTAAGTAACTCTGCACTCTTTAGCCCTGATGAATTCGTAGAT		no binding	no binding	no binding	binds
